Experimental data reported in patent US11571459B2, “Methods for treating cancer using PS-targeting antibodies with immuno-oncology agents” (ONCXERNA THERAPEUTICS, INC., priority 2017, dated 2023).
Read-outs that look alike come from different tables or passages of the source.

What was measured:
tumors = test: Syngeneic and xenogeneic tumor models; type: in vivo, mice; conditions: wide range of studies
Protocol: The 3G4 antibody was purified to apparent homogeneity from the supernatant of the cultured hybridoma using a standard Protein A procedure.
In early studies in mice, it was calculated that molar ratios of β2GPI to antibody of between 0.12 and 0.25 were effective for anti-tumor activity, thus showing that high levels of β2GPI are not necessary for anti-tumor activity.

[1] = Administration to rats (safety); type: in vivo; conditions: doses above 10 mg/kg
[2] = Administration to monkeys (safety); type: in vivo
[3] = Further pharmacokinetic studies in over 120 patients with cancer or viral infections; type: in vivo, human
hepatitis C virus (HCV) = test: Phase Ib escalating repeat-dose study in chronic HCV; type: in vivo, human; conditions: for viral load: Phase Ib
Protocol: Bavituximab was first evaluated in Phase I, open-label, dose escalation studies and Phase Ib, open-label, escalating repeat-dose studies in patients chronically infected with hepatitis C virus (HCV). […] Doses of 0.1, 0.3, 1, 3 and 6 mg/kg were administered in Phase I (30 patients; successive cohorts of 6 patients), and doses of 0.3, 1, 3 and 6 mg/kg were administered in Phase Ib (24 patients; four cohorts of 6 patients).

[4] = tested on: HER2-negative metastatic breast cancer; test: Bavituximab and paclitaxel in HER2-negative metastatic breast cancer; type: in vivo, human
Source text: Manageable infusion-related reactions were the most common AE related to bavituximab.

[5] = tested on: locally advanced or metastatic breast cancer; test: Phase II bavituximab plus docetaxel in breast cancer; type: in vivo, human; conditions: with docetaxel
Source text: This trial was also a Phase II, multicenter trial utilizing a Simon 2-stage design. […] The primary objective was to determine the ORR (CR+PR). Secondary objectives included time to tumor progression, DOR, OS and safety.
All patients received one prior chemotherapy regimen.

[6] = tested on: advanced hepatocellular carcinoma (HCC); test: Phase II bavituximab and sorafenib in HCC; type: in vivo, human
Protocol: A Phase II, single institution study of bavituximab and sorafenib in advanced hepatocellular carcinoma (HCC) was conducted. […] Secondary endpoints included overall survival (OS), disease specific survival, 4 month progression free survival, safety and response rate. The study accrued 38 patients.

[7] = tested on: previously untreated stage IV pancreatic cancer; test: Phase II (PPHM 1002) gemcitabine with or without bavituximab; type: in vivo, human; conditions: with gemcitabine
Protocol: The primary objective was to compare the OS of patients among the treatment arms. Secondary objectives included comparing PFS, ORR, DR and safety.
Gemcitabine (1000 mg/m^2) was given on days 1, 8, and 15 of each 28-day cycle (4 weeks) until disease progression or unacceptable toxicities. A total of 70 patients were enrolled to the study. In general, the patient population had very extensive disease burden, which may have reduced the response in both arms.
The levels of pre-treatment functional β2GPI ranged from 82.5 to 343.2 μg/ml for all patients. For these 31 patients, the mean level of pre-treatment functional β2GPI (219.2 μg/ml) was consistent with the average reported in the literature.

[8] = tested on: previously treated non-squamous NSCLC
Protocol: The primary objective of this study was to compare the ORR (CR+PR) among the treatment arms. Secondary objectives included comparing PFS, DR, OS, safety and PK.
Additional blood draws were performed for these patients during Cycles 1 and 2 at specified time points.
Samples from the NSCLC Phase II trial of Example IX (PPHM 0902) were tested using the functional β2GPI assay of Example XII.

[9] = tested on: previously untreated locally advanced or metastatic non-squamous NSCLC; test: Phase II (PPHM 1001) paclitaxel/carboplatin with or without bavituximab; type: in vivo, human; conditions: bavituximab given with paclitaxel/carboplatin
PS = conditions: in the presence of serum; cited from earlier work
[10] = tested on: previously-treated Stage IIIb/IV non-squamous NSCLC; test: Phase III trial of bavituximab plus docetaxel in NSCLC; conditions: functional β2GPI ≥200 μg/mL
Source text: This global, double-blind Phase III trial was initiated in 2012. Selection criteria were for patients with Stage IIIb/IV non-squamous NSCLC who progressed on platinum-doublet chemotherapy (should have progressed on appropriate targeted therapy if known EGFR or ALK mutation), with ECOG PS 0-1 and prior immunotherapy allowed (ECOG is the performance status scale defined by the Eastern Cooperative Oncology Group). […] The primary endpoint was overall survival (OS) and secondary endpoints included objective response rate (Independent Central Review, ICR), progression-free survival (ICR), safety, PK, Quality of Life (LCSS) and exploratory biomarkers, including immune correlates.
OS was analyzed by VeriStrat subgroups using Kaplan-Meier statistical methods.
A single cutoff method was first used to assess the patient β2GPI data.
The initial analyses described above prompted further, extensive analyses of the data in 592 evaluable patients. These analyses used a two cutoff method (Klein & Moeschberger, 2003).
Archival tissue obtained at the time of diagnosis was requested, but not required, in the Phase III trial of Example X. Formalin-fixed paraffin-embedded (FFPE) slides were stained with antibodies for a panel of lymphoid (or tumor) cell markers, as described in Feng et al., 2015: CD3+, CD8+, FoxP3+, PD-L1+, CD163+ and CK+ (cytokeratin, an epithelial carcinoma marker) using a mutliplex (6-plex) quantitative immunohistochemistry (IHC) assay (OPAL®, PerkinElmer, Waltham, Mass., USA) and using DAPI. The PD-L1 antibody used was the rabbit anti-PD-L1 antibody termed E1L3N® XP® (Cell Signaling Technology, (CST), Danvers, Mass., Catalogue #13684; Mahoney et al., 2015). Baseline PD-L1 expression was retrospectively scored on tumor cells (TC, i.e., CK+) and PD-L1 expressing tumor cells were classified according to their percentage within the total number of tumor cells using established assays and classifications (Fehrenbacher et al., 2016), as follows: TC3≥50%; TC2≥5% and ≤50%; TC1≥1% and <5%; and TC0<1%. Cox regression models for PD-L1 IHC subgroup populations were used for correlation with OS.
Kaplan-Meier statistical methods and Cox proportional hazard models were utilized to evaluate and contrast the correlation of peripheral (and intratumoral) IFNγ levels with OS based on a data cut from the Phase III trial (Example X) dated Feb.

HCV (genotype 1) = test: Phase II study of bavituximab with ribavirin in chronic HCV (genotype 1); conditions: for patients with early virological response (EVR): Week 12
[11] = Phase I dose escalation study of bavituximab monotherapy in refractory advanced solid tumors: PK, safety; conditions: for AUCinf / Cmax / t1/2 / CL: Mean (CV %)
Protocol: Samples were collected from patients in the 0.1 and 0.3 mg/kg dose cohorts before the study, on days 0, 1, 2, 4, 7, 10, 14, and every 7 days from days 21 to 70. Samples were collected from patients in the 1 and 3 mg/kg dose cohorts before the study, on days 0, 1, 2, 4, 7, 14, 21, 22, 23, 25, and every 7 days from days 28 to 56.

[12] = 3 mg/kg weekly with paclitaxel, 14 patients
[13] = functional β2GPI less than 200 μg/mL
[14] = ITT, all with docetaxel, Bavituximab arm 3 mg/kg

**Q.** With bavituximab as the substance, how does the “in vivo localization and effects” value (tumors) read?
**A.** localize to tumor vascular endothelium and to exert anti-tumor effects and anti-viral effects

**Q.** And the doses safely administered [1]?
**A.** up to 100 mg/kg

**Q.** What about the “effect on β2GPI in the systemic circulation” value ([2]; 100 mg/kg) of the same substance?
**A.** transiently decreased β2GPI in the systemic circulation

**Q.** What about the doses safely administered ([2]; doses above 10 mg/kg) of the same substance?
**A.** up to 100 mg/kg

**Q.** And the PK linearity ([3]; doses 0.1 to 6 mg/kg)?
**A.** linear single-dose and multiple-dose PK characteristics

**Q.** And the “time by which distribution phase is essentially complete” value ([3]; where observed)?
**A.** ≤ 6 h

**Q.** What about the viral load (hepatitis C virus (HCV); 3 mg/kg, throughout treatment and follow-up) of the same substance?
**A.** consistent decreases in HCV

**Q.** And the viral load (hepatitis C virus (HCV); doses of 0.3, 1 and 6 mg/kg)?
**A.** small decreases in viral load

**Q.** What about the “accumulation / time-dependent PK differences” value (hepatitis C virus (HCV); all dose levels, day 0 and day 10) of the same substance?
**A.** no evidence of accumulation of bavituximab or time-dependent PK differences

**Q.** And the “median progression-free survival (PFS)” value ([4]; 3 mg/kg weekly with paclitaxel)?
**A.** 7.3 months

**Q.** What about the “overall response rate (ORR)” value [4, 12] of the same substance?
**A.** 85%

**Q.** What about the “patients having a complete response” value [4, 12] of the same substance?
**A.** 2 patients

**Q.** What about the tolerability ([4]; in combination with paclitaxel) of the same substance?
**A.** well tolerated

**Q.** And the “most common adverse events” value ([4]; with paclitaxel)?
**A.** Bone pain, fatigue, headache and neutropenia

**Q.** What about the thrombogenicity ([4]; with paclitaxel) of the same substance?
**A.** no evidence for increased thrombogenicity

**Q.** And the “median DOR” value [5]?
**A.** 6.1 months

**Q.** And the “median PFS” value [5]?
**A.** 7.4 months

**Q.** And the “most common TEAEs of Grade ≥3” value [5]?
**A.** only fatigue, headache, back pain and hypertension were Grade ≥3

**Q.** And the CR ([5]; 46 patients)?
**A.** 10.9%

**Q.** And the PR ([5]; 46 patients)?
**A.** 50.0%

**Q.** And the objective response ([5]; 46 patients)?
**A.** 60.9%

**Q.** What about the “median OS” value ([5]; final analysis) of the same substance?
**A.** approximately 20.7 months

**Q.** What about the “patients with increased infiltration of activated tumor-fighting T-cells (CD8) into the tumor microenvironment” value ([6]; after one cycle) of the same substance?
**A.** Three of the six patients

**Q.** And the “anorexia, all grade” value ([6]; with sorafenib)?
**A.** 24%

**Q.** What about the “diarrhea, all grade” value ([6]; with sorafenib) of the same substance?
**A.** 32%

**Q.** What about the “fatigue, all grade” value ([6]; with sorafenib) of the same substance?
**A.** 26%

**Q.** What about the “four month PFS” value ([6]; with sorafenib) of the same substance?
**A.** 61%

**Q.** And the “median OS (mOS)” value ([6]; with sorafenib)?
**A.** 6.2 months

**Q.** What about the partial response ([6]; with sorafenib) of the same substance?
**A.** Two patients achieved partial response

**Q.** What about the tolerability ([6]; with sorafenib) of the same substance?
**A.** well tolerated

**Q.** And the “grade 4 or 5 adverse events” value ([6]; with sorafenib, 38 patients)?
**A.** no grade 4 or 5 adverse events recorded

**Q.** And the mOS [7, 13]?
**A.** 5.3 months

**Q.** What about the mOS ([7]; functional β2GPI ≥200 μg/mL) of the same substance?
**A.** 7.4 months

**Q.** What about the “ORR greater than combined group by” value ([8]; 3 mg/kg) of the same substance?
**A.** approximately 50%

**Q.** And the “median OS longer than combined group by” value ([8]; 3 mg/kg)?
**A.** approximately 60%

**Q.** And the Deaths [8, 14]?
**A.** 53.7%

**Q.** What about the “Number of Deaths” value [8, 14] of the same substance?
**A.** 22

**Q.** And the “Overall Response Rate (CR + PR)” value ([8]; ITT, central review, all with docetaxel, Bavituximab arm 3 mg/kg)?
**A.** 17.1%

**Q.** What about the pharmacokinetic drug-drug interaction ([8]; PK sub-study, 6 patients per arm, cycles 1 and 2) of the same substance?
**A.** No clinically relevant pharmacokinetic drug-drug interaction was observed

**Q.** What about the mOS ([8]; functional β2GPI less than 200 μg/mL, bavituximab 3 mg/kg with docetaxel) of the same substance?
**A.** 9.4 months

**Q.** And the mOS ([8]; functional β2GPI ≥200 μg/mL, bavituximab 3 mg/kg, all with docetaxel)?
**A.** 16.8 months

**Q.** What about the mOS [9, 13] of the same substance?
**A.** 14.2 months

**Q.** What about the mOS ([9]; functional β2GPI ≥200 μg/mL) of the same substance?
**A.** 17.0 months

**Q.** What about the “binding to anionic phospholipids (PS, PI, PA, PG, CL)” value (PS) of the same substance?
**A.** bind strongly to anionic phospholipids

**Q.** What about the mOS ([10]; with subsequent IO) of the same substance?
**A.** has yet to be reached

**Q.** What about the mOS ([10]; without subsequent IO) of the same substance?
**A.** 10.5 months

**Q.** What about the “patients with early virological response (EVR)” value (HCV (genotype 1); 0.3 mg/kg weekly with ribavirin) of the same substance?
**A.** 18%

**Q.** What about the “patients with early virological response (EVR)” value (HCV (genotype 1); 3 mg/kg weekly with ribavirin) of the same substance?
**A.** 9%

**Q.** What about the “safety profile / patients reporting AEs” value (HCV (genotype 1); all with ribavirin) of the same substance?
**A.** more favorable safety profile

**Q.** And the viral reduction (HCV (genotype 1); plus ribavirin, 12 weeks)?
**A.** gradual viral reduction over 12 weeks was seen in some patients

**Q.** What about the PK linearity ([11]; 0.1 to 3 mg/kg) of the same substance?
**A.** linear single-dose (day 0) and multiple-dose (days 21 or 42) PK characteristics

**Q.** What about the maximum tolerated dose ([11]; 0.1 to 3 mg/kg weekly) of the same substance?
**A.** No maximum tolerated dose was reached

**Q.** And the AUCinf ([11]; Day 0, 0.1 mg/kg, N=8)?
**A.** 113 (50.1) d μg/mL

**Q.** What about the Cmax ([11]; Day 0, 0.1 mg/kg, N=8) of the same substance?
**A.** 2.11 (27.3) μg/mL

**Q.** What about the t1/2 ([11]; Day 0, 0.1 mg/kg, N=8) of the same substance?
**A.** 43.9 (48.5) h

**Q.** What about the AUCinf ([11]; Day 0, 0.3 mg/kg, N=6) of the same substance?
**A.** 241 (39.8) d μg/mL

**Q.** What about the Cmax ([11]; Day 0, 0.3 mg/kg, N=6) of the same substance?
**A.** 5.13 (42.4) μg/mL

**Q.** And the t1/2 ([11]; Day 0, 0.3 mg/kg, N=6)?
**A.** 39.8 (34.1) h

**Q.** What about the AUCinf ([11]; Day 0, 1.0 mg/kg, N=6) of the same substance?
**A.** 966 (30.0) d μg/mL

**Q.** And the Cmax ([11]; Day 0, 1.0 mg/kg, N=6)?
**A.** 16.6 (30.9) μg/mL

**Q.** What about the t1/2 ([11]; Day 0, 1.0 mg/kg, N=6) of the same substance?
**A.** 40.3 (20.2) h

**Q.** What about the AUCinf ([11]; Day 0, 3.0 mg/kg, N=6) of the same substance?
**A.** 3,017 (50.3) d μg/mL

**Q.** What about the Cmax ([11]; Day 0, 3.0 mg/kg, N=6) of the same substance?
**A.** 56.4 µg/mL

**Q.** And the t1/2 ([11]; Day 0, 3.0 mg/kg, N=6)?
**A.** 37.2 (34.5) h

**Q.** What about the AUCinf ([11]; Day 21, 1.0 mg/kg weekly, N=6) of the same substance?
**A.** 1,053 (38.0) d μg/mL

**Q.** What about the CL ([11]; Day 21, 1.0 mg/kg weekly, N=6) of the same substance?
**A.** 1.12 (52.1) mL/kg/d

**Q.** And the Cmax ([11]; Day 21, 1.0 mg/kg weekly, N=6)?
**A.** 18.7 (31.8) μg/mL

**Q.** What about the t1/2 ([11]; Day 21, 1.0 mg/kg weekly, N=6) of the same substance?
**A.** 46.8 (38.4) h

**Q.** And the AUCinf ([11]; Day 21, 3.0 mg/kg weekly, N=4)?
**A.** 2,672 (63.4) d μg/mL

**Q.** And the CL ([11]; Day 21, 3.0 mg/kg weekly, N=4)?
**A.** 1.51 (61.4) mL/kg/d

**Q.** And the Cmax ([11]; Day 21, 3.0 mg/kg weekly, N=4)?
**A.** 59.6 (27.6) μg/mL

**Q.** And the t1/2 ([11]; Day 21, 3.0 mg/kg weekly, N=4)?
**A.** 46.0 (44.4) h

**Q.** And the “time concentration remained above 2 μg/mL” value ([11]; dose of 1 mg/kg)?
**A.** 6 days

**Q.** And the “time concentration remained above 2 μg/mL” value ([11]; dose of 3 mg/kg)?
**A.** 7 days
